The target of the test is T1, mouse CSL (amino acid residues 53-474), conserved and structurally ordered core domain (mouse, UniProt P31266 53-474).
T1 construct: The SMT3 tag was cut off with ubiquitin-like protease and separated by ion exchange; also called RBPJ; mCSL
Put plainly: ITC; CSL in the cell at 10 μM, RAM peptides in the syringe at 100 μM; 20 °C; 50 mM sodium phosphate, 150 mM sodium chloride; triplicate, 20 injections of 14 μl. To be noted: both partners purified. In general terms: ITC needs no label: the signal is the heat of the interaction.

The term Kd denotes the constant that tells how readily two partners part at equilibrium.

T1 sequence (P31266 53-474): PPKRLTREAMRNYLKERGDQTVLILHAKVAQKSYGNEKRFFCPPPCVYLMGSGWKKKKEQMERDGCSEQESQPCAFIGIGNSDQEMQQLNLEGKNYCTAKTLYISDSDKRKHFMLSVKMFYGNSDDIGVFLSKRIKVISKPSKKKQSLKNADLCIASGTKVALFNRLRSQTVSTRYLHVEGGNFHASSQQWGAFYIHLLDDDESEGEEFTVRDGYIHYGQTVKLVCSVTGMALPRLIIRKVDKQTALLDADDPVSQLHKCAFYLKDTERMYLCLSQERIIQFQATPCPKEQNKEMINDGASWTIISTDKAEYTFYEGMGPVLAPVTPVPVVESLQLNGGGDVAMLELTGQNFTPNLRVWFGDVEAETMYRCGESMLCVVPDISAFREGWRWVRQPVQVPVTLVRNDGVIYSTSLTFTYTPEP

B1: human NOTCH1 RAM peptide (residues 1754-1781) (peptide)
peptide: VLLSRKRRRQHGQLWFPEGFKVSEASKK
notes: NOTCH1, human, RAM domain, residues 1754-1781; also called N1RAM; source: synthetic peptide (Peptide2.0, 95% purity)
B1 showed a Kd of 22 nM.

The values are drawn from paper PMC8100066, “PIM-induced phosphorylation of Notch3 promotes breast cancer tumorigenicity in a CSL-independent fashion” (The Journal of Biological Chemistry, 2021).
